Assay results as given in patent US10093706, “Dominant positive hnRNP-E1 polypeptide compositions and methods” (Indiana University Research and Technology Corporation).

Assays:
hnRNP-E1(C293S) = hnRNP-E1(C293S) (Homo sapiens, UniProt Q15365 SEQ:1-356); assay: no L-homocysteine; Scatchard; conditions: tags: GST fusion (pGEX-4T-1, E. coli BL21); label: 35S
Description: (§1) Specific binding was determined by subtracting values of non-specific binding with GST from those of total binding with GST-hnRNP-E1; (however, in Table 1 and FIG. 6G, non-specific binding using bovine serum albumin (BSA) was subtracted from total binding to GST-hnRNP-E1 to determine specific binding). The K_D was calculated from a Scatchard plot using GraphPad Prism 6 from GraphPad Software (San Diego, Calif.), as previously described in the art.

hnRNP-E1(G292A) = hnRNP-E1(G292A) (Homo sapiens, UniProt Q15365 SEQ:1-356, G292A); assay: no L-homocysteine; Scatchard; no gel-shift signal in this condition (FIG. 1B); conditions: tags: GST fusion (pGEX-4T-1, E. coli BL21); label: 35S
Chain of hnRNP-E1(G292A) (Q15365 whole entry A205V/G292A, the tested form may be a part): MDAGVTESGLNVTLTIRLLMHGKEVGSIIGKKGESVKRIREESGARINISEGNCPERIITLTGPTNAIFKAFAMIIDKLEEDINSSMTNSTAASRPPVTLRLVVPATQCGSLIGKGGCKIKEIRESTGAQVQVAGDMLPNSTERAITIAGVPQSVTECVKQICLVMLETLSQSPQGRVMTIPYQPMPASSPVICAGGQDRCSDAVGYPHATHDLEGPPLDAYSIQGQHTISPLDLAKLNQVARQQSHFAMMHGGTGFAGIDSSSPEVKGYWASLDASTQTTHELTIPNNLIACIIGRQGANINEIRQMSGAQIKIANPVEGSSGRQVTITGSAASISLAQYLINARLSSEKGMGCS
Description: as §1

[1] = biological target: hnRNP-E1 (PCBP1) wild-type (Homo sapiens, UniProt Q15365 SEQ:1-356); assay: EMSA; 15 uM L-homocysteine; complete quenching of signal; conditions: tags: GST fusion (pGEX-4T-1, E. coli BL21)
Chain of hnRNP-E1 (PCBP1) wild-type (Q15365 whole entry A205V, the tested form may be a part): as the sequence (Q15365 whole entry A205V/G292A, the tested form may be a part) above, with A292G counted along it

Chain of hnRNP-E1(C293S) (Q15365 whole entry A205V/C293S, the tested form may be a part): as the sequence (Q15365 whole entry A205V/G292A, the tested form may be a part) above, with A292G, C293S counted along it

Binder	Kd (hnRNP-E1(C293S)) [nM]	Kd (hnRNP-E1(G292A)) [nM]	binding result [1]
CUCCCGCCCGCUCCCGCUCGCUCCC (ssRNA) [25-nt hnRNP-E1 mRNA 5'-UTR cis-element]	0.39	2.02	–
CUUCCGCCCGCUCCCGCUCGCUUCC (ssRNA) [25-nt cis-element mutation 6]	–	–	no binding
